Results from paper PMC6123711, “Conformational signatures in β-arrestin2 reveal natural biased agonism at a G-protein-coupled receptor” (Communications Biology, 2018).

B1: Spexin (peptide, UniProt Q9BT56 27-116, looked up)
Spexin: APQRLLERRNWTPQAMLYLKGAQGRRFISDQSRRKDLSDRPLPERRSPNPQLLTIPEAATILLASLQKSPEDEEKNFDQTRFLEDSLLNW
modifications: Spexin
notes: endogenous peptide ligand of Galr2 and Galr3; synthesized by AnyGen

Key:
Format in all cases: cell-based, human
[1] = test system: β-arrestin2–Galr2 interaction (Galr2); assay: β-Arrestin2 recruitment using NanoBit technology; conditions: for Log(τ/KA), β-Arrestin2: HEK293 cells, luminescence at 5 min after agonist, operational model (Eq. 2)
Excerpt: (§1) The β-arrestin recruitment assays were developed based on a structural complementation assay using NanoBit technology. Briefly, NanoBit technology is a system that basically consists of Nano luciferase (Nluc), which is a small protein that catalyzes a bright luminescent reaction. To create a complementation system, Nluc was separated into two subunits that individually produce very little enzymatic activity. […] Because of this low affinity for each other, these two fragments can bind when they are in close proximity. The interaction between the LgBit and the SmBit can be driven by the interactions of the fusion partners, allowing them to study protein–protein interaction in live cells. As the interaction is reversible, the association and dissociation can be monitored. There is no lag time in the loss of luminescence, and so the immediate detection allows for accurate assessment of temporal dynamics. […] To accurately monitor β-arrestin recruitment, four plasmid combinations between LgBit and SmBit with the fusion partners Galr2 and β-arrestins were screened. The plasmid combination with the highest luminescence signal was chosen for further studies (Fig. 2a, Supplementary Fig. 1). Using data points at 5 min after ligand stimulation, we obtained dose–response curves that corresponded to β-arrestin1/2 recruitment (Fig. 2d, e, Supplementary Fig. 2).
(§2) Fig. 2 The effect of different endogenous ligands in β-arrestin1/2 recruitment. a Schematic representation of the structural complementation assay used to monitor β-arrestin1/2–Galr2 interactions. Kinetic traces of β-arrestin1 (b) and β-arrestin2 (c) recruitment after Galr2 activation with 1 μM of three different agonists. Dose–response curves for recruitment of β-arrestin1 (d), and β-arrestin2 (e). Luminescence signal intensity obtained at 5 min after agonist stimulation was measured. […] The results are expressed as mean ± s.e.m. of three experiments performed in triplicate; each triplicate was averaged before calculating the s.e.m. The arrows indicate the time at which the cells were treated with the different ligands
(§3) Quantification of bias between each pathway was performed using Galanin as a reference ligand. All incubations for the different signaling assays were performed in serum-free medium to prevent peptide degradation.
HEK293 cells were obtained from the American Type Culture Collection (ATCC, CRL-1573; Manassas, VA, USA). […] After a 10-min incubation, 25 μl substrate (furimazine) was added and once every minute subsequent luminescence measurements were taken for 10 min for signal stabilization. A total of 10 μl ligand was then added to each well and luminescence measurements were recorded immediately and once every minute for 1 h (Synergy 2 Multi-Mode Microplate Reader BioTek, Winooski, VT, USA).

[2] = test system: β-arrestin1–Galr2 interaction (Galr2); assay: β-Arrestin1 recruitment using NanoBit technology; conditions: for Log(τ/KA), β-Arrestin1: HEK293 cells, luminescence at 5 min after agonist, operational model (Eq. 2); for Log(τ/KA), β-Arrestin1 / ΔLog(τ/KA), β-Arrestin1: mean ± s.e.m. of three experiments in triplicate; for ΔLog(τ/KA), β-Arrestin1: normalized to Galanin (reference agonist), in parenthesis
Excerpt: as §1, §2, §3
HEK293 cells were obtained from the American Type Culture Collection (ATCC, CRL-1573; Manassas, VA, USA). They were maintained in Dulbecco’s modified Eagle’s medium (DMEM) supplemented with 10% fetal bovine serum (FBS), 100 U/ml penicillin G, and 100 μg/ml streptomycin (Invitrogen; Carlsbad, CA, USA). During the experiments, the cells were tested for mycoplasma using a Universal Mycoplasma Detection Kit (ATCC). At 1 day before transfection, the cells were seeded in 96-well plates at a density of 2.5 × 10^4 cells per well. A mixture containing 50 ng β-arrestin construct containing the LgBit or SmBit and 50 ng Galr2 containing one of the two domains of Nluc and 0.2 μl Lipofectamine 2000 (Invitrogen) was prepared and added to each well. We tested four β-arrestin-Galr2 spatial orientations. […] After a 10-min incubation, 25 μl substrate (furimazine) was added and once every minute subsequent luminescence measurements were taken for 10 min for signal stabilization. A total of 10 μl ligand was then added to each well and luminescence measurements were recorded immediately and once every minute for 1 h (Synergy 2 Multi-Mode Microplate Reader BioTek, Winooski, VT, USA).

[3] = test system: Galr2; assay: β-Arrestin1/2-dependent Erk1/2 phosphorylation (Gαq/11-knockout HEK293 cells); conditions: for ΔLog(τ/KA), β-Arrestin1/2 dependent-pErk1/2: normalized to Galanin (reference agonist), in parenthesis, mean ± s.e.m. of three experiments in triplicate; for Log(τ/KA), β-Arrestin1/2 dependent-pErk1/2: western blot, 5 min stimulation, operational model (Eq. 2), mean ± s.e.m. of three experiments in triplicate (table footnote)
Excerpt: Galr2 is primarily coupled to the Gαq-protein which activates the phospholipase C/protein kinase C pathway for inositol phosphate production. We measured G-protein activation in HEK293 cells transiently expressing Galr2, using the serum response element-luciferase (SRE-Luc) gene reporter assay[10],[37] and for a more specific monitoring of Gαq-protein activity we also measured total inositol phosphate production. […] However, some differences were observed between SRE-Luc activity and total inositol phosphate production in the rank order of potency of the tested ligands. […] Phosphorylation of extracellular signal-regulated protein kinases 1 and 2 (pErk1/2) is either G-protein or β-arrestin dependent. To distinguish Gαq-protein- and β-arrestin1/2-dependent Erk1/2 signaling, we examined ligand-stimulated Erk1/2 phosphorylation in three different HEK293 cell lines, wild type, Gαq/11-knockout, and β-arrestin1/2-knockout cells. All three ligands induced high levels of Erk1/2 phosphorylation dose-dependently in wild-type HEK293 cells.
Fig. 5 Galr2 agonists display different Gαq-protein-dependent signaling and pErk1/2. The ability of increasing concentrations of agonists to induce a SRE-Luc activity and b total inositol phosphate production. c Representative western blot showing ligand-induced phosphorylation of Erk1/2 from wild-type (HEK293 WT), Gαq/11-, and β-arrestin1/2-knockout HEK293 cells expressing Galr2 (original blots are presented in Supplementary Figure 4). pErk1/2 and total Erk levels were determined at 5 min after stimulation of different concentrations of three ligands. Western blot band intensities corresponding to each concentration were quantified using Image studio ^TM Software. […] Data are the mean ± s.e.m. values of two independent experiments
pErk1/2 was measured using western blot assay. HEK293 Gαq/11 and β-arrestin1/2-knockout cells were a kind gift from Professor Asuka Inoue, Tohoku University. The cells were seeded into 6-well plates at a density of 6 × 10^5 cells per well. The next day, they were transfected using 2 μg/well of plasmid containing human Galr2 cDNA and Lipofectamine 2000, according to the manufacturer’s instructions. Before assay, the cells were washed with phosphate-buffered saline and incubated in serum-free DMEM overnight. Dose–response experiments were performed for each ligand at 37 °C. Stimulation of the cells was terminated after 5 min of agonist stimulation by removing the medium, and the addition of 250 μl cold lysis buffer to each well. Immunoblots of phospho-Erk1/2 were obtained using 8 μg of total protein and p44/42 MAPK Erk1/2 antibody (Cell Signaling Technology Inc, catalog no. 4370 S); horseradish peroxidase-conjugated goat anti-rabbit IgG was used as a secondary antibody (Thermo Fisher Scientific). […]

[4] = mean ± s.e.m. of three experiments in triplicate
[5] = dose–response, data at 5 min after ligand stimulation, compared with Galanin

Molecule | Log(τ/KA), β-Arrestin2 [1, 4] | ΔLog(τ/KA), β-Arrestin2 ([1]; normalized to Galanin (reference agonist), in parenthesis, mean ± s.e.m. of three experiments in triplicate) | Log(τ/KA), β-Arrestin1 [2] | ΔLog(τ/KA), β-Arrestin1 [2] | ΔLog(τ/KA), β-Arrestin1/2 dependent-pErk1/2 [3] | Log(τ/KA), β-Arrestin1/2 dependent-pErk1/2 [3] | agonism in β-arrestin2 recruitment [1, 5] | agonism in β-arrestin1 recruitment [2, 5]
Galanin [reference compound] | 7.20 ± 0.02 | 0.00 ± 0.02 | 7.18 ± 0.01 | 0.00 ± 0.01 | 0.00 ± 0.40 | 6.42 ± 0.41 | – | –
B1 | 6.40 ± 0.03 | – | 6.60 ± 0.08 | −0.60 ± 0.01 | 0.73 ± 0.13 | 7.15 ± 0.14 | partial agonists | partial agonists
